Data on 1 molecule can be found in publication PMC3621763, “Adenoviral Gene Transfer of PLD1-D4 Enhances Insulin Sensitivity in Mice by Disrupting Phospholipase D1 Interaction with PED/PEA-15” (PLoS ONE, 2013).

In this experiment the target is T1, PED/PEA-15 over-expressed in transgenic Tg_(Ped/pea-15) mice (UniProt Q15121 1-130).
T1 construct: PED/PEA-15 expressed from the transgene of Tg_(Ped/pea-15) mice; The precipitate from transgenic muscle holds the transgene's product together with the endogenous mouse protein; source: transgenic mice with ubiquitous over-expression of Ped/pea-15, tibialis skeletal muscle lysate
T1 sequence (Q15121 whole entry): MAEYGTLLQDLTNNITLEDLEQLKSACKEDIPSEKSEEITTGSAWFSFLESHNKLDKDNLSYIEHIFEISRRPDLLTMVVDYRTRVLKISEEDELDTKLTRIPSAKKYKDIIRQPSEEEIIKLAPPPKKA
The experiment is described as follows: co-IP; tibialis skeletal muscle lysate (0.5-1 mg) of Wt and Tg_(Ped/pea-15) mice, precleared with pre-immune serum, anti-PED/PEA-15 antibody overnight at 4°C, protein A sepharose, blot with anti-PLD1. The settings on record: partners not purified.

B1: Phospholipase D1 (PLD1), endogenous in mouse skeletal muscle (enzyme, UniProt Q9Z280 1-1074, looked up)
chain: MSLKSETRVNTSTLQKIAADMSNLIENLDTRELHFEGEEVEYDASPGDPKAQEGCIPFSSIYNTQGFKEPNIQTYLSGCPIKAQVLEVERFTSTSRVPSINLYTIELTHGEFTWQVKRKFKHFQEFHRELLKYKAFIRIPIPTKRHTFRRQNVKEEPREMPSLPRSSENAIQEEQFFGRRKQLEDYLTKILKMPMYRNYHATTEFLDVSQLSFIHDLGPKGLEGMIMKRSGGHRIPGVNCCGHGRACYRWSKRWLIVKDSFLLYMKPDSGAIAFVLLVDKEFRVKVGRKETETKYGLRIDNLSRTLILKCNSYRHARWWGGAIEEFIRKHGADFLKDHRFGSYAALHENTLAKWYVNAKGYFEDIANAMEEASEEIFITDWWLSPEIFLKRPVVEGNRWRLDCILKRKAQQGVRIFIMLYKEVELALGINSEYSKRTLMRLHPNIKVMRHPDHVSSSVYLWAHHEKLVIIDQSVAFVGGIDLAYGRWDDNEHRLTDVGSVKRVTSGLSLGSLTAASVESMESLSLKDKHEFHKKEPISKIVDETDMKLKGIGKSRKFSKFSLYRQLHRHHLHNADSISSIDSTSSYFSHCRSHQNLIHGLKPHLKLFHPSSESEQGLTRHSTDTGSIRSVQTGVGELHGETRFWHGKDYCNFVFKDWVQLDKPFADFIDRYSTPRMPWHDIGSVVHGKAARDVARHFIQRWNFTKIMKPKYRSLSYPFLLPKSQATAHELRYQVPGAVPAKVQLLRSAADWSAGIKHHEESIHAAYIHVIENSKHYIYIENQFFISCADDKVVFNKVGDRIAQRILKAHREGQRYRVYIVIPLLPGFEGDISTGGGNALQAIMHFNYRTMCRGESSILEQLKPELGNKWINYISFCGLRTHAELEGNLVTELIYVHSKLLIADDNTVIIGSANINDRSMLGKRDSEMAVIVQDTETVPSVMDGKEYQAGRFARDLRLECFRLVLGYLSDPSEDLQDPVSDKFFKEIWVSTAARNATIYDKVFRCLPNDEVHNLIQLRDFINKPILAKEDALRAEEELRKIRGFLVQFPLYFLSEENLLPSVGTKEAIVPMEVWT
notes: Phospholipase D1, endogenous protein of mouse skeletal muscle; Detected by blot with an anti-PLD1 antibody in the anti-PED/PEA-15 precipitate; source: endogenous, tibialis skeletal muscle lysate of Wt and Tg_(Ped/pea-15) mice
For the molecule B1, the “fold increase of the co-precipitated interaction against Wt mice” value turned out to be 4 fold.
